Consider one molecule from patent publication US20100197581A1 (TIBOTEC PHARMACEUTICALS, published 2010).

The target of this test is sCD4 induced HIV-1 IIIB Env complexes (gp120/gp41 native spikes) on HUTIIIB cells (clone 199-76) (HIV-1 IIIB; human, UniProt P04578 33-856; P01730 26-396).

B1: F105 (antibody, V domains shown)
VH: QVQLQESGPGLVKPSETLSLTCTVSGGSISSHYWSWIRQSPGKGLQWIGYIYYSGSTNYSPSLKSRVTISVETSKNQFSLKLTSMTAADTAVYYCARGPVPAVFYGDYRLDPWGQGTLVTVSS
VL: EIVLTQSPGTLSLSAGERATLSCRASQSVSSRYLAWYQQKPGQAPRLLIYGASSRATGIPDRFSGSGSGTDFTLTISRVEPEDFAVYYCQQYDNSVCTFGQGTKLEIK
As usually defined, the EC50 is the concentration at which the effect is half-maximal. Regarding B1, the EC50 is > 100 nM.
